Values belong to the binder of their own block, whether it stands above or below them.
How the values were obtained:
[1] = target: platelet-derived growth factor-BB (PDGF-BB) (human) (UniProt P01127); experiment: peptide binding to PDGF-BB
[2] = target: platelet-derived growth factor-BB (PDGF-BB) (human) (UniProt P01127); experiment: method not restated (same value as FN634-648 in paragraph 247)
[3] = target: transforming growth factor-β1 (TGF-β1) (human) (UniProt P01137); experiment: equilibrium binding
Sequence of transforming growth factor-β1 (TGF-β1) (human) (P01137 279-390 limits assumed): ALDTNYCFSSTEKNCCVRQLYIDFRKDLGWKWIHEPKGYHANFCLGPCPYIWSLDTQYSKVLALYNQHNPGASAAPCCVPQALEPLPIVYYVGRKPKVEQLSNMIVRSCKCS

[4] = target: platelet-derived growth factor-BB (PDGF-BB) (human) (UniProt P01127); experiment: equilibrium binding

Sequence of platelet-derived growth factor-BB (PDGF-BB) (human) (P01127 82-190 limits assumed): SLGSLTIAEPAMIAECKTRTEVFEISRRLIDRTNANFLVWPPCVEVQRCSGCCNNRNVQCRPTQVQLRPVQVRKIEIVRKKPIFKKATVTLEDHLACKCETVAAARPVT

Kd [1]: 450 nM
Kd [2]: 450 nM
Kd [3]: 440 nM
B1: peptide 1A (FN634-648) … (peptide)
peptide: QPSHISKYILRWRPK

Kd [1]: 110 nM
Kd [3]: 270 nM
B2: peptide 2 (FN680-704) … (peptide)
peptide: QLISIQQYGHQEVTRFDFTTTSTST

Kd [1]: 340 nM
B3: FN630-648 … (peptide)
peptide: WNAPQPSHISKYILRWRPK

Kd [3]: 140 nM
B4: peptide 3 … (peptide)
peptide: NGQTPIQRTIKPDVRSYTITGLQPGT

Kd [3]: 400 nM
B5: peptide 1B … (peptide)
peptide: ILRWRPKNSVGRWK

Kd [1]: 250 nM
Kd [4]: 250 nM
Kd [3]: 130 nM
B6: peptide 1 (FN634-658) … (peptide)
peptide: QPSHISKYILRWRPKNSVGRWKEAT

Kd [3]: 100 nM
B7: peptide 4 (FN2043-2067) … (peptide)
peptide: QPSVGQQMIFEEHGFRRTTPPTTAT
